Values of other authors in PMC8316261.

Molecular target: C5aR (Homo sapiens) (UniProt P21730)
Chain of UniProt P21730 (P21730 whole entry): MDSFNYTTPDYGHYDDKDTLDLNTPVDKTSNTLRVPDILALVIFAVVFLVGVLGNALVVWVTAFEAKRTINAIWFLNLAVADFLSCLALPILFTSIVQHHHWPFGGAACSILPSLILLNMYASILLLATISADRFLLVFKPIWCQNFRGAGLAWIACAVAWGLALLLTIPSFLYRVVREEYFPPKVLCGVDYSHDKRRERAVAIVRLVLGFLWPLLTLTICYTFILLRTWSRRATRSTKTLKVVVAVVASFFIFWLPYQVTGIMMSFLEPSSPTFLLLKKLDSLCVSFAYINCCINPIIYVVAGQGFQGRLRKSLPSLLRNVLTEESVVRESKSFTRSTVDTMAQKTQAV

Kd: 1 nM
Substance: C5a C5a (from UniProt P01031)
